Target: T1, TAMRA-Aβ1-42 (Homo sapiens, UniProt P05067)
T1 construct: fluorophore-labeled Aβ (TAMRA-Aβ1-42)
Test: Fluorescence anisotropy of Aβ binding to AuNP surface
Conditions: intrinsic, free peptide
Text: Fluorescence anisotropy also confirmed Aβ binding to AuNP surface. This technique reports on the change in the molecular rotation of the dye attached to the free TAMRA-Aβ1-42 peptide and when it binds to something larger than itself under polarized light. The steady-state anisotropy (r) is derived from the following equation in which r=(IVV−GIVH)/(IVV+2GIVH), where IVV and IVH are the fluorescence intensities, the subscripts indicate the orientation of the excitation and emission polarizer's, and G=IHV/IHH is the wavelength dependent sensitivity of the instrument. In a typical experiment the intrinsic anisotropy of TAMRA-Aβ1-42 (ravg=0.12) increases in the presence of Au-SOA-PC-HT (ravg=0.35) (FIG. 18). The resulting change in anisotropy (Δr=0.23) is due to a large change in the hydrodynamic radius (size) of the small TAMRA-Aβ1-42 when it binds to the much larger Au-SOA-PC-HT nanoparticles. […] Note that Cu^II pre-incubated with TAMRA-Aβ1-42 when added to Au-SOA-PC-HT has the same 0.11 change in anisotropy (FIG. 18). Possible explanations for the additional increase in r include metal ion reassembly of peptides bound to the membrane or bridging interactions between the Au-SOA-PC-HT-TAMRA-Aβ1-42 species. Alternatively, metals could arrange TAMRA-Aβ1-42 within the membrane bilayer to slow its molecular rotation. […]

T1 sequence (P05067 672-713): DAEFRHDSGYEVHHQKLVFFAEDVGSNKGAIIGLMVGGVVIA

## TAMRA-Aβ1-42: fluorophore-labeled Aβ
  steady-state anisotropy ravg of TAMRA-Aβ1-42: 0.12

Source: US11324837B2, “Hybrid membrane-coated nanoparticle composites and methods of making and using the same” (Portland State University, priority 2016, dated 2022)
